Data reported in patent US20030157533A1, “Nucleic acid labeling by Thermoanaerobacter thermohydrosulfuricus DNA polymerase I variants” (priority 2001, published 2003).

Legend:
Type in all cases: biochemical
[1] = tested on: defined DNA template-DNA primer; assay: Single nucleotide incorporation of dye-dCTP during DNA dependent DNA synthesis (FIG. 13); details: lower concentrations (0.2 uM or lower) of dye-dCTP
Protocol: (§1) Optimized 1×buffer compositions for Reverse Transcriptase (RNA dependent DNA Polymerase) and DNA Polymerase (DNA dependent DNA polymerase) reactions for all variants of Tts Pol I are as follows. Tris, pH 8.0 (50 mM), KCl (40 mM), MgCl2 (3 mM), DTT (1 mM), DNA or RNA template (as needed), primer (5 to 50 femto mols), enzyme 0.5 to 1 units, dNTP or dNTP analog (varying concentrations as needed). In standard synthesis reactions, when full-length synthesis is monitored, 50 uM of all 4 dNTPs are included. Typical reaction volume is 10 ul. Reaction temperature was kept between 37-60 C. depending on the experimental needs. Reaction time was limited to 10 minutes for single nucleotide incorporation studies. Time was varied as needed for the purpose of the experiments, sometimes up to 1 hour if longer extensions are monitored.
Primer extension was monitored using a defined DNA template-DNA primer.
In this experiment the relative efficiencies of incorporation of dye-CTP (Cy3.5-dCTP) was investigated. Three enzyme preparations were tested ΔTts, ΔTtsF412Y, and ΔTtsF412YD426R
Defined DNA shown below served as the template. A P-33 labeled primer (DNA 25 mer) was annealed to the template. Reactions were performed with varying concentrations of either Cy3.5-dCTP or dCTP alone. Inclusion of only one dNTP allowed incorporation of the next correct nucleotide alone. The sequence of the template-primer that allowed for the examination of single nucleotide “C” incorporation is shown below.
Lanes 1, 2, 3, 4 and 5 contain 20, 2, 0.2, 0.02 and 0 uM dye-dCTP. Lane 5 has no enzyme, to show the integrity of the starting p-33 labeled primer. Quantification of the single nucleotide extension product is one way to tell if DR change in the enzyme led to any consequence. “P” indicates a radio labeled primer. “P+1” represents the elongated product by a single nucleotide or nucleotide analog. P+1 migrates slowly with the dye-dNTP conjugate. Note that the migration of Cy3.5-dCTP containing band travel slowly on the gel compared to dCMP extended products. […] P+1 product is achieved between 10-100 fold less concentration of dye-dCTP with the enzyme having the DR change. Essentially, incorporation is achieved at a much lower concentration of dye-dNMP compared to the wild type enzyme. It is evident that the DR enzyme was able to incorporate Cy3.5-dCTP at concentrations as low as 0.2 uM or even lower.

[2] = tested on: Globin mRNA template annealed to P-33 labeled primer; assay: Single nucleotide incorporation of Cy3.5-dCTP or dCTP on RNA template (reverse transcriptase reaction, FIG. 7); details: lower concentrations (0.2 uM or lower) of dye-CTP
Protocol: The experiment shown in FIG. 7 investigates the relative efficiencies of incorporation of dye-CTP (Cy3.5-dCTP) and dCTP. Three enzyme preparations ΔTts, ΔTts F412Y, ΔTtsF412YD426R were analyzed in this experiment.
as §1
The experiment shown in FIG. 7 investigates the relative efficiencies of incorporation of dye-CTP (Cy3.5-dCTP) and dCTP. Three enzyme preparations ΔTts, ΔTtsFY, ΔTtsF412YD426R were analyzed in this experiment.
In FIG. 7, Globin mRNA served as the template. A 5′ P-33 labeled primer (DNA 25-mer) was annealed to the template. Reactions were performed with varying concentrations of either Cy3.5-dCTP or dCTP alone. Inclusion of only one dNTP allowed incorporation of the next correct nucleotide alone. The sequence of the template-primer that allowed for the examination of single nucleotide “C” incorporation is shown below.
Lanes 1,2,3 and 4 contain 20, 2, 0.2, and 0.02 uM of dNTP or dye-dNTP. Lane with no label has no enzyme, to show the integrity of the starting P-33 labeled primer. Quantification of the single nucleotide extension product is one way to tell if DR change to in the enzyme led to any consequence. “P” indicates a radio labeled primer. “P+1” represents the elongated product by a single nucleotide or nucleotide analog. P+1 migrates slowly with the dye-dNTP conjugate. Note that the migration of Cy3.5 dCMP containing bands travel slowly on the gel compared to dCTP extended products. […] Essentially, incorporation is achieved at lower concentrations (less than 10 times) of dye-dNTP compared to that of the wild type polymerase. It is evident that the DR enzyme was able to incorporate Cy3.5 dCTP at concentrations as low as 0.2 uM (Cy3.5 dCTP) or even lower. […] In this experiment the template-primer is a mRNA annealed to radio labeled primer. Extension is monitored qualitatively as P+1 for the natural nucleotides and P+1* for dye labeled nucleotide. This is a promising first observation for potential use in microarray applications for cDNA probe labeling.

Globin mRNA = assay: Direct RNA sequencing (FIG. 8); details: compared to retroviral reverse transcriptases
Source text: Globin mRNA served as a template. The 50-mer DNA was used a primer. Standard sequencing components in Amersham Pharmacia Thermo Sequenase kit were employed for sequencing. P-33 labeled terminators (ddNTP) were obtained from Amersham Pharmacia Biotech. Post-sequencing reaction products were separated on 6% urea-polyacrylamide gels. AMV, Avian Myeloblastosis virus RT.

incorporation of Cy3.5-dCTP (qualitative, P+1 band) [2]	Molecule	incorporation of Cy3.5-dCTP (qualitative, P+1 band) [1]	quality of sequence information from short stretches of RNA (Globin mRNA)
relatively poor incorporation	D enzyme: 5′-3′ exonuclease deficient amino-terminally truncated Tts DNA polymerase I with unaltered aspartate at 426 (SEQ ID No. 3) (protein, listed as Thermoanaerobacter thermohydrosulfuricus) MYKFLIIDGSSLMYRAYYALPMLTTSEGLPTNALYGFTMMLIKLIEEEKPDYIAIAFDKKAPTFRHKEYQDYKATRQAMPEELAEQVDYLKEIIDGFNIKTLELEGYEADDIIGTISKLAEEKGMEVLVVTGDRDALQLVSDKVKIKISKKGITQMEEFDEKAILERYGITPQQFIDLKGLMGDKSDNIPGVPNIGEKTAIKLLKDFGTIENLIQNLSQLKGKIKENIENNKELAIMSKRLATIKRDIPIEIDFEEYKVKKFNEEKLLELFNKLEFFSLIDNIKKESSIEIVDNHKVEKWSKVDIKELVTLLQDNRNIAFYPLIYEGEIKKIAFSFGKDTVYIDVFQTEDLKEIFEKEDFEFTTHEIKDFLVRLSYKGIECKSKYIDTAVMAYLLNPSESNYDLDRVLKKYLKVDVPSYEGIFGKGRDKKKIEEIDENILADYICSRCVYLFDLKEKLMNFIEEMDMKKLLLEIEMPLVEVLKSMEVSGFTLDKEVLKELSQKIDDRIGEILDKIYKEAGYQFNVNSPKQLSEFLFEKLNLPVIKKTKTGYSTDSEVLEQLVPYNDIVSDIIEYRQLTKLKSTYIDGFLPLMDENNRVHSNFKQMVTATGRISSTEPNLQNIPIREEFGRQIRRAFIPRSRDGYIVSADYSQIELRVLAHVSGDEKLIESFMNNEDIHLRTASEVFKVPMEKVTPEMRRAAKAVNFGIIYGISDYGLSRDLKISRKEAKEYINNYFERYKGVKDYIEKIVRFAKENGYVTTIMNRRRYIPEINSRNFTQRSQAERLAMNAPIQGSAADIIKMAMVKVYNDLKKLKLKSKLILQVHDELVVDTYKDEVDIIKKILKENMENVVQLKVPLVVEIGVGPNWFLAK	relatively poor incorporation	
decreased incorporation	Tts F412Y: exonuclease deficient truncated Tts DNA polymerase I with F to Y change at position 412 (SEQ ID No. 5) (protein, listed as Thermoanaerobacter thermohydrosulfuricus) MYKFLIIDGSSLMYRAYYALPMLTTSEGLPTNALYGFTMMLIKLIEEEKPDYIAIAFDKKAPTFRHKEYQDYKATRQAMPEELAEQVDYLKEIIDGFNIKTLELEGYEADDIIGTISKLAEEKGMEVLVVTGDRDALQLVSDKVKIKISKKGITQMEEFDEKAILERYGITPQQFIDLKGLMGDKSDNIPGVPNIGEKTAIKLLKDFGTIENLIQNLSQLKGKIKENIENNKELAIMSKRLATIKRDIPIEIDFEEYKVKKFNEEKLLELFNKLEFFSLIDNIKKESSIEIVDNHKVEKWSKVDIKELVTLLQDNRNIAFYPLIYEGEIKKIAFSFGKDTVYIDVFQTEDLKEIFEKEDFEFTTHEIKDFLVRLSYKGIECKSKYIDTAVMAYLLNPSESNYDLDRVLKKYLKVDVPSYEGIFGKGRDKKKIEEIDENILADYICSRCVYLFDLKEKLMNFIEEMDMKKLLLEIEMPLVEVLKSMEVSGFTLDKEVLKELSQKIDDRIGEILDKIYKEAGYQFNVNSPKQLSEFLFEKLNLPVIKKTKTGYSTDSEVLEQLVPYNDIVSDIIEYRQLTKLKSTYIDGFLPLMDENNRVHSNFKQMVTATGRISSTEPNLQNIPIREEFGRQIRRAFIPRSRDGYIVSADYSQIELRVLAHVSGDEKLIESFMNNEDIHLRTASEVFKVPMEKVTPEMRRAAKAVNYGIIYGISDYGLSRDLKISRKEAKEYINNYFERYKGVKDYIEKIVRFAKENGYVTTIMNRRRYIPEINSRNFTQRSQAERLAMNAPIQGSAADIIKMAMVKVYNDLKKLKLKSKLILQVHDELVVDTYKDEVDIIKKILKENMENVVQLKVPLVVEIGVGPNWFLAK	decreased incorporation	excellent sequence information
